Results reported in paper PMC4545750.

Target: Krimper Tudor2 domain (562-746) (D. melanogaster) (UniProt A1ZAC4)
Assay: ITC

UniProt A1ZAC4, sequence (A1ZAC4 562-746): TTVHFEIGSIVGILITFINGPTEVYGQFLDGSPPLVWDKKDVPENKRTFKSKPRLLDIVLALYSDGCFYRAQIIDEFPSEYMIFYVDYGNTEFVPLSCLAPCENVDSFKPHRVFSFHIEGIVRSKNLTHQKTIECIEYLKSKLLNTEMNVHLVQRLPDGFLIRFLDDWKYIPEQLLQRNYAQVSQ

Kd [µM]	Substance
16.3	Aubergine peptide (residues 6 to 18) with symmetrically di-methylated arginine 11 (from UniProt O76922 6-18)
4.1	Aubergine peptide (residues 6 to 18) with symmetrically di-methylated arginine 15 (from UniProt O76922 6-18)
